According to the supplement of paper PMC9233669:
Fewer inactive variants are shown than the library holds.

How the values were obtained:
biotinyl-Leu-oxazolone = experiment: self-aminoacylation, catalytic enhancement (BLO) (fold over background); higher = more active; k-Seq, kA / k0A0; sequences stand for … in GGGAAUGGAUCCACAUCUACGAAUUC…UUCACUGCAGACUUGACGAAGCUG
Outline: (§1)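 Mutagenized RNA pools (0.43 μM; 21-nt variable region) were treated with 2–1250 μM of each biotinyl-aminoacyl-oxazolone. Conditions were 50 μL HEPES/NaCl/KCl/MgCl2/CaCl2 buffer, 5% acetonitrile, pH 6.9–7.0, room temperature, 90 minutes. Catalytic enhancement, the median kA relative to the uncatalyzed rate, was derived from streptavidin capture, qPCR and Illumina sequencing.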

biotinyl-Phe-oxazolone = experiment: self-aminoacylation, catalytic enhancement (BFO) (fold over background); higher = more active; k-Seq, kA / k0A0; sequences stand for … in GGGAAUGGAUCCACAUCUACGAAUUC…UUCACUGCAGACUUGACGAAGCUG
Outline: as §1

biotinyl-Met-oxazolone = experiment: self-aminoacylation, catalytic enhancement (BMO) (fold over background); higher = more active; k-Seq, kA / k0A0; sequences stand for … in GGGAAUGGAUCCACAUCUACGAAUUC…UUCACUGCAGACUUGACGAAGCUG
Outline: as §1

biotinyl-Val-oxazolone = experiment: self-aminoacylation, catalytic enhancement (BVO) (fold over background); higher = more active; k-Seq, kA / k0A0; sequences stand for … in GGGAAUGGAUCCACAUCUACGAAUUC…UUCACUGCAGACUUGACGAAGCUG
Outline: as §1

biotinyl-Trp-oxazolone = experiment: self-aminoacylation, catalytic enhancement (BWO) (fold over background); higher = more active; k-Seq, kA / k0A0; sequences stand for … in GGGAAUGGAUCCACAUCUACGAAUUC…UUCACUGCAGACUUGACGAAGCUG
Outline: as §1

biotinyl-Ile-oxazolone = experiment: self-aminoacylation, catalytic enhancement (BIO) (fold over background); higher = more active; k-Seq, kA / k0A0; sequences stand for … in GGGAAUGGAUCCACAUCUACGAAUUC…UUCACUGCAGACUUGACGAAGCUG
Outline: as §1

Sequence | self-aminoacylation (biotinyl-Leu-oxazolone) | self-aminoacylation (biotinyl-Phe-oxazolone) | self-aminoacylation (biotinyl-Met-oxazolone) | self-aminoacylation (biotinyl-Val-oxazolone) | self-aminoacylation (biotinyl-Trp-oxazolone) | self-aminoacylation (biotinyl-Ile-oxazolone)
AAUUUUGCUAAUAGUUGCAAG [Fam3.1 aminoacylation ribozyme variant] | 1.63 | 2.06 | 1.54 | 1.53 | 1.75 | 1.73
AAUUUUGCUAAUAUUCGCAAG [Fam3.1 aminoacylation ribozyme variant] | 1.57 | 1.5 | 1.55 | 1.5 | 2.15 | 1.92
AAUUUUGCUACUAGUCGCAAG [Fam3.1 aminoacylation ribozyme variant] | 1.54 | 2.25 | 1.53 | 1.74 | 2.5 | 1.87
AAUUUUGCUCAUAGUCGCAAG [Fam3.1 aminoacylation ribozyme variant] | 1.98 | 3.17 | 1.82 | 1.57 | 1.69 | 1.85
ACAACCCUGGUCAUCGAGUGA [Fam2.1 aminoacylation ribozyme variant] | 12.2 | 17.4 | 11.4 | 5.2 | 12.5 | 6.16
ACACAAUUCAAGCAAUCGGUC [Fam1B.1 aminoacylation ribozyme variant] | 1.21 | 1.95 | 1.21 | 1.18 | 1.67 | 1.44
ACACACUCCAAGCAAUCGGUC [Fam1B.1 aminoacylation ribozyme variant] | 0.864 | 1.92 | 0.768 | 0.924 | 0.999 | 0.959
ACACACUUCAAGCAAUCAGUC [Fam1B.1 aminoacylation ribozyme variant] | 0.999 | 9.33 | 0.988 | 1.11 | 4.18 | 1.12
ACACACUUCAAGCAAUCGGUA [Fam1B.1 aminoacylation ribozyme variant] | 1.84 | 2 | 1.66 | 1.55 | 2.19 | 1.73
ACACACUUCAAGCUAUCGGUC [Fam1B.1 aminoacylation ribozyme variant] | 1.1 | 1.15 | 1.03 | 1.2 | 0.982 | 1.33
ACACACUUGAAGCAAUCGGUC [Fam1B.1 aminoacylation ribozyme variant] | 0.919 | 1.25 | 0.88 | 1.23 | 1.17 | 1
ACACACUUUAAGCAAUCGGUC [Fam1B.1 aminoacylation ribozyme variant] | 0.948 | 1.34 | 0.832 | 0.949 | 1.03 | 1.06
ACGUAUGCUAAUAGUCGCAAG [Fam3.1 aminoacylation ribozyme variant] | 1.72 | 1.96 | 1.35 | 1.43 | 1.29 | 1.61
ACGUUCGCUAAUAGUCGCAAG [Fam3.1 aminoacylation ribozyme variant] | 1.96 | 1.62 | 1.24 | 1.91 | 2.21 | 1.84
ACGUUUGCUAAUAGACGCAAG [Fam3.1 aminoacylation ribozyme variant] | 0.849 | 0.853 | 0.935 | 1.12 | 1.11 | 1.3
ACGUUUGCUAAUAGUCGCAAU [Fam3.1 aminoacylation ribozyme variant] | 1.51 | 2.06 | 1.45 | 1.33 | 1.53 | 1.66
ACGUUUGCUAAUAGUCGCACG [Fam3.1 aminoacylation ribozyme variant] | 2.26 | 3.42 | 2.53 | 2.05 | 2.13 | 2.43
ACGUUUGCUAAUAGUCGUAAG [Fam3.1 aminoacylation ribozyme variant] | 1.04 | 15.7 | 1.27 | 1.1 | 4.64 | 1.14
ACGUUUGCUACUAGUCGCAAG [Fam3.1 aminoacylation ribozyme variant] | 1.7 | 2.4 | 2.16 | 1.47 | 1.31 | 1.76
ACGUUUGCUGAUAGUCGCAAG [Fam3.1 aminoacylation ribozyme variant] | 1.57 | 4.7 | 1.12 | 1.35 | 1.69 | 1.52
ACGUUUUCUAAUAGUCGCAAG [Fam3.1 aminoacylation ribozyme variant] | 1.67 | 2.79 | 1.59 | 1.53 | 1.55 | 1.75
ACUACACUGGUCAUCGAGUGA [Fam2.1 aminoacylation ribozyme variant] | 4.81 | 13.7 | 4.45 | 3 | 5.78 | 3.3
ACUACCAUGGUCAUCGAGUGA [Fam2.1 aminoacylation ribozyme variant] | 7.97 | 34.8 | 6.31 | 4.53 | 9.5 | 4.61
ACUACCCCGGUCAUCGAGUGA [Fam2.1 aminoacylation ribozyme variant] | 5.9 | 30.8 | 5.95 | 2.87 | 5.9 | 3.29
ACUACCCUGGCCAUCGAGUGA [Fam2.1 aminoacylation ribozyme variant] | 6.69 | 27.3 | 4.33 | 3.77 | 7.18 | 3.53
ACUACCCUGGUAAUCGAGUGA [Fam2.1 aminoacylation ribozyme variant] | 7.43 | 43.4 | 7.36 | 3.16 | 9.29 | 3.32
